Assay results: patent publication EP4725967A1 (Nanjing Probio Biotech Co., Ltd., dated 2026)
Where a chain is given by its changes, count along the chain named.

Experiments:
human CCR8 [1] = biological target: T1, human CCR8 (human, UniProt P51685 1-355); assay: flow cytometry, hybridoma supernatant on HEK293/hu-CCR8 cells
T1 construct: whole, on cells; also called hu-CCR8; CC chemokine receptor 8

human CCR8 [2] = biological target: T1, human CCR8; assay: flow cytometry on HEK293/hu-CCR8 cells, chimeric antibody (FIG. 1B)
human CCR8 [3] = biological target: T1, human CCR8; assay: flow cytometry on HEK293/hu-CCR8 cells (FIG. 5A)
human CCR8 [4] = biological target: T1, human CCR8; assay: flow cytometry on HEK293/hu-CCR8 cells, chimeric antibody (FIG. 1A)

T1 sequence (P51685 whole entry): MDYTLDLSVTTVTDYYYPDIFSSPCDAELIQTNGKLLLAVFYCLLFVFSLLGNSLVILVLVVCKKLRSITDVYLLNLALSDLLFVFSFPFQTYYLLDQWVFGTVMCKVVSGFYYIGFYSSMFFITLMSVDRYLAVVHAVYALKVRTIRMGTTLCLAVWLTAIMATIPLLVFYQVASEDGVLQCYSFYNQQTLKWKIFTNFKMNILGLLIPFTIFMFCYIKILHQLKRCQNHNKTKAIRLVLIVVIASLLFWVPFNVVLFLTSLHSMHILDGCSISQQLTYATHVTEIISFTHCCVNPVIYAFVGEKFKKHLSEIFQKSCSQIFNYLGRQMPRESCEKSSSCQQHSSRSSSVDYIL

B1: antibody produced by monoclonal clone 154G7C3 (murine, hybridoma) (antibody, V domains shown)
VH: QVQLQQSGAELVRPGASVTLSCKTSGYTFTDFEMHWVKQTPVHGLEWIGAFDPETGGTAYNQKFKGKAILTADKSSSTAYMELRSLTSEDSAVYYCTGRLRRHFDSWGQGTTLTVSS
VL: DVVMTQTPLSLPVSLGDQASISCRSSQSLVHSYGNTYLHWYLQKPGQSPKLLIYKVSNRFSGVPDRFSGSGSGTDFTLKISRVEAEDLGVYFCSQSTHVPFTFGSGTKLEIK
notes: Mouse antibody in hybridoma supernatant; Taking 27/28 as murine rests only on the order of listing
Human CCR8 [1]
  binding result: binds

B2: chimeric antibody 224E9A3 (antibody, human IgG1, kappa, V domains shown)
VH: EVQLVESGGGLVQPKGSLKLSCAASGFTFNTYAMYWVCQAPGKGLEWVARIRSKSNNYATYYADSVKDRFTISRDDSQSMLYLQMNNLKTEDTAMYYCVRGGRGNYLYAMDYWGQGTSVTVSS
VL: DIVMTQAAPSVPVTPGESVSISCRSSKSLLHSNGNTYLYWFLQRPGQSPQLLIYRMSNLASGVPDRFSGSGSGSAFTLRISRVEAEDVGVYYCMQHLEYPFTFGSGTKLEIKR
notes: Murine variable regions on human IgG1/kappa
Human CCR8 [2]
  binding result: binds

B3: humanized antibody 154G7C3-VH1.1-VL2 (antibody, human IgG1, kappa, V domains shown)
VH: QVQLVQSGAEVKKPGASVKVSCKVSGYTFTDFEMHWVRQAPGKGLEWIGAFDPETGGTAYNQKFKGRVTMTEDTSTDTAYMELSSLRSEDTAVYYCTGRLRRHFDSWGQGTLVTVSS
VL: DIVMTQSPLSLPVTPGEPASISCRSSQSLVHSYGNTYLHWYLQKPGQSPQLLIYKVSNRFSGVPDRFSGSGSGTDFTLKISRVEAEDVGVYYCSQSTHVPFTFGQGTKLEIKR
notes: Human IgG1/kappa
Human CCR8 [3]
  binding result: binds

B4: humanized antibody 117G9F9-VH2.1-VL1 (antibody, human IgG1, kappa, V domains shown)
VH: EVQLVESGGGLVKPGGSLRLSCAASGFSFNTYAMNWVRQAPGKGLEWVGRIRSKSNYYATYYADSVKDRFTISRDDSKNTLYLQMNSLKTEDTAVYYCVRGGNSYGSSYFDYWGQGTLVTVSS
VL: DIVMTQSPLSLPVTPGEPASISCRSSKSLLHRNGNTYLYWYLQKPGQSPQLLIYRMSNLASGVPDRFSGSGSGTDFTLKISRVEAEDVGVYYCMQHLEYPFTFGQGTKLEIKR
notes: Human IgG1/kappa
Human CCR8 [3]
  binding result: binds

B5: antibody produced by monoclonal clone 117G9F9 (murine, hybridoma) (antibody, V domains shown)
VH: EVQLVESGGGLVQPKGSLKLSCAASGFSFNTYAMNWVRQAPGKGLEWVARIRSKSNYYATYYADSVKDRFTISRDDSESMLYLQMNNLKTEDTAMYYCVRGGNSYGSSYFDYWGQGTTLTVSS
VL: DIVMTQAAPSVPVTPGESVSISCRSSKSLLHRNGNTYLYWFLQRPGQSPQLLIYRMSNLASGVPDRFSGSGSGTAFTLRISRLEAEDVGVYYCMQHLEYPFTFGAGTKLELK
notes: Mouse antibody in hybridoma supernatant; Taking 31/32 as murine rests only on the order of listing
Human CCR8 [1]
  binding result: binds

B6: antibody produced by monoclonal clone 224E9A3 (murine, hybridoma) (antibody, V domains shown)
VH: B2 VH
VL: B5 VL with R32S, T74S, L83V, A105S, L111I
notes: Mouse antibody in hybridoma supernatant
Human CCR8 [1]
  binding result: binds

B7: chimeric antibody 154G7C3 (antibody, human IgG1, kappa, V domains shown)
VH: B1 VH
VL: B3 VL with I2V, S7T, T14S, P15L, E17D, P18Q, Q50K, V88L, Y92F, Q105S
notes: as for B2
Human CCR8 [4]
  binding result: binds

B8: chimeric antibody 117G9F9 (antibody, human IgG1, kappa, V domains shown)
VH: B5 VH
VL: B2 VL with S32R, S74T, V83L, S105A, I111L
notes: as for B2
Human CCR8 [4]
  binding result: binds
